In paper doi:10.1101/2025.03.16.643581 one finds Kd data, which are given here for three substances.

The target in this experiment is CDKL5-PBM peptide, WT (FITC-labeled) (human). Put plainly: fluorescence polarisation. (Polarisation of emitted light reports the rotation of a fluorescent probe.)

For orientation: Kd means the free concentration of one partner at which half of the binding sites on the other are occupied at equilibrium, for simple one-to-one binding. Lower therefore signals tighter binding. Turning to PSD95 PDZ1 domain (domain or fragment), the dissociation constant (Kd) is 146 µM.
In turn, PSD95 PDZ2 domain (domain or fragment) registered a Kd of 40.8 µM.
Turning to PSD95 PDZ3 domain (domain or fragment), the Kd stood at 13.3 µM.
